Assay results: IntAct's records for PubMed 26524528

B1: Lamin-B1 (Homo sapiens), P20700 (parent)
chain: MATATPVPPRMGSRAGGPTTPLSPTRLSRLQEKEELRELNDRLAVYIDKVRSLETENSALQLQVTEREEVRGRELTGLKALYETELADARRALDDTARERAKLQIELGKCKAEHDQLLLNYAKKESDLNGAQIKLREYEAALNSKDAALATALGDKKSLEGDLEDLKDQIAQLEASLAAAKKQLADETLLKVDLENRCQSLTEDLEFRKSMYEEEINETRRKHETRLVEVDSGRQIEYEYKLAQALHEMREQHDAQVRLYKEELEQTYHAKLENARLSSEMNTSTVNSAREELMESRMRIESLSSQLSNLQKESRACLERIQELEDLLAKEKDNSRRMLTDKEREMAEIRDQMQQQLNDYEQLLDVKLALDMEISAYRKLLEGEEERLKLSPSPSSRVTVSRASSSRSVRTTRGKRKRVDVEESEASSSVSISHSASATGNVCIEEIDVDGKFIRLKNTSEQDQPMGGWEMIRKIGDTSVSYKYTSRYVLKAGQTVTIWAANAGVTASPPTDLIWKNQNSWGTGEDVKVILKNSQGEEVAQRSTVFKTTIPEEEEEEEEAAGVVVEEELFHQQGTPRASNRSCAIM

Variants of: B1
Settings: with mlp3b_human MAP1LC3B
MATATPVPPRMGSRAGGPTTPLSPTRLSRLQEKEELRELNDRLAVYIDKVRSLETENSALQLQVTEREEVRGRELTGLKALYETELADARRALDDTARERAKLQIELGKCKAEHDQLLLNYAKKESDLNGAQIKLREYEAALNSKDAALATALGDKKSLEGDLEDLKDQIAQLEASLAAAKKQLADETLLKVDLENRCQSLTEDLEFRKSMYEEEINETRRKHETRLVEVDSGRQIEYEYKLAQALHEMREQHDAQVRLYKEELEQTYHAKLENARLSSEMNTSTVNSAREELMESRMRIESLSSQLSNLQKESRACLERIQELEDLLAKEKDNSRRMLTDKEREMAEIRDQMQQQLNDYEQLLDVKLALDMEISAYRKLLEGEEERLKLSPSPSSRATVSRASSSRSVRTTRGKRKRVDVEESEASSSVSISHSASATGNVCIEEIDVDGKFIRLKNTSEQDQPMGGWEMIRKIGDTSVSYKYTSRYVLKAGQTVTIWAANAGVTASPPTDLIWKNQNSWGTGEDVKVILKNSQGEEVAQRSTVFKTTIPEEEEEEEEAAGVVVEEELFHQQGTPRASNRSCAIM [V398A] was tested, and the “effect of a mutation on the interaction” value was “decreasing interaction strength”. For MATATPVPPRMGSRAGGPTTPLSPTRLSRLQEKEELRELNDRLAVYIDKVRSLETENSALQLQVTEREEVRGRELTGLKALYETELADARRALDDTARERAKLQIELGKCKAEHDQLLLNYAKKESDLNGAQIKLREYEAALNSKDAALATALGDKKSLEGDLEDLKDQIAQLEASLAAAKKQLADETLLKVDLENRCQSLTEDLEFRKSMYEEEINETRRKHETRLVEVDSGRQIEYEYKLAQALHEMREQHDAQVRLYKEELEQTYHAKLENARLSSEMNTSTVNSAREELMESRMRIESLSSQLSNLQKESRACLERIQELEDLLAKEKDNSRRMLTDKEREMAEIRDQMQQQLNDYEQLLDVKLALDMEISAYRKLLEGEEERLKLSPSPSAAVTVSRASSSRSVRTTRGKRKRVDVEESEASSSVSISHSASATGNVCIEEIDVDGKFIRLKNTSEQDQPMGGWEMIRKIGDTSVSYKYTSRYVLKAGQTVTIWAANAGVTASPPTDLIWKNQNSWGTGEDVKVILKNSQGEEVAQRSTVFKTTIPEEEEEEEEAAGVVVEEELFHQQGTPRASNRSCAIM [S396A;R397A], the “effect of a mutation on the interaction” value was “decreasing interaction strength”. In the case of MATATPVPPRMGSRAGGPTTPLSPTRLSRLQEKEELRELNDRLAVYIDKVRSLETENSALQLQVTEREEVRGRELTGLKALYETELADARRALDDTARERAKLQIELGKCKAEHDQLLLNYAKKESDLNGAQIKLREYEAALNSKDAALATALGDKKSLEGDLEDLKDQIAQLEASLAAAKKQLADETLLKVDLENRCQSLTEDLEFRKSMYEEEINETRRKHETRLVEVDSGRQIEYEYKLAQALHEMREQHDAQVRLYKEELEQTYHAKLENARLSSEMNTSTVNSAREELMESRMRIESLSSQLSNLQKESRACLERIQELEDLLAKEKDNSRRMLTDKEREMAEIRDQMQQQLNDYEQLLDVKLALDMEISAYRKLLEGEEERLKLSPAPAAAVTVSRASSSRSVRTTRGKRKRVDVEESEASSSVSISHSASATGNVCIEEIDVDGKFIRLKNTSEQDQPMGGWEMIRKIGDTSVSYKYTSRYVLKAGQTVTIWAANAGVTASPPTDLIWKNQNSWGTGEDVKVILKNSQGEEVAQRSTVFKTTIPEEEEEEEEAAGVVVEEELFHQQGTPRASNRSCAIM [S393A;S395A;S396A;R397A], the “effect of a mutation on the interaction” value is reported as “decreasing interaction strength”. MATATPVPPRMGSRAGGPTTPLSPTRLSRLQEKEELRELNDRLAVYIDKVRSLETENSALQLQVTEREEVRGRELTGLKALYETELADARRALDDTARERAKLQIELGKCKAEHDQLLLNYAKKESDLNGAQIKLREYEAALNSKDAALATALGDKKSLEGDLEDLKDQIAQLEASLAAAKKQLADETLLKVDLENRCQSLTEDLEFRKSMYEEEINETRRKHETRLVEVDSGRQIEYEYKLAQALHEMREQHDAQVRLYKEELEQTYHAKLENARLSSEMNTSTVNSAREELMESRMRIESLSSQLSNLQKESRACLERIQELEDLLAKEKDNSRRMLTDKEREMAEIRDQMQQQLNDYEQLLDVKLALDMEISAYRKLLEGEEERLKLSPAPAAAATVSRASSSRSVRTTRGKRKRVDVEESEASSSVSISHSASATGNVCIEEIDVDGKFIRLKNTSEQDQPMGGWEMIRKIGDTSVSYKYTSRYVLKAGQTVTIWAANAGVTASPPTDLIWKNQNSWGTGEDVKVILKNSQGEEVAQRSTVFKTTIPEEEEEEEEAAGVVVEEELFHQQGTPRASNRSCAIM [S393A;S395A;S396A;R397A;V398A] was tested, and the “effect of a mutation on the interaction” value was “disrupting interaction strength”. With MATATPVPPRMGSRAGGPTTPLSPTRLSRLQEKEELRELNDRLAVYIDKVRSLETENSALQLQVTEREEVRGRELTGLKALYETELADARRALDDTARERAKLQIELGKCKAEHDQLLLNYAKKESDLNGAQIKLREYEAALNSKDAALATALGDKKSLEGDLEDLKDQIAQLEASLAAAKKQLADETLLKVDLENRCQSLTEDLEFRKSMYEEEINETRRKHETRLVEVDSGRQIEYEYKLAQALHEMREQHDAQVRLYKEELEQTYHAKLENARLSSEMNTSTVNSAREELMESRMRIESLSSQLSNLQKESRACLERIQELEDLLAKEKDNSRRMLTDKEREMAEIRDQMQQQLNDYEQLLDVKLALDMEISAYRKLLEGEEERLKLSPAPASRVTVSRASSSRSVRTTRGKRKRVDVEESEASSSVSISHSASATGNVCIEEIDVDGKFIRLKNTSEQDQPMGGWEMIRKIGDTSVSYKYTSRYVLKAGQTVTIWAANAGVTASPPTDLIWKNQNSWGTGEDVKVILKNSQGEEVAQRSTVFKTTIPEEEEEEEEAAGVVVEEELFHQQGTPRASNRSCAIM [S393A;S395A] the “effect of a mutation on the interaction” value was “decreasing interaction strength”. MATATPVPPRMGSRAGGPTTPLSPTRLSRLQEKEELRELNDRLAVYIDKVRSLETENSALQLQVTEREEVRGRELTGLKALYETELADARRALDDTARERAKLQIELGKCKAEHDQLLLNYAKKESDLNGAQIKLREYEAALNSKDAALATALGDKKSLEGDLEDLKDQIAQLEASLAAAKKQLADETLLKVDLENRCQSLTEDLEFRKSMYEEEINETRRKHETRLVEVDSGRQIEYEYKLAQALHEMREQHDAQVRLYKEELEQTYHAKLENARLSSEMNTSTVNSAREELMESRMRIESLSSQLSNLQKESRACLERIQELEDLLAKEKDNSRRMLTDKEREMAEIRDQMQQQLNDYEQLLDVKLALDMEISAYRKLLEGEEERLKLSPSPAARVTVSRASSSRSVRTTRGKRKRVDVEESEASSSVSISHSASATGNVCIEEIDVDGKFIRLKNTSEQDQPMGGWEMIRKIGDTSVSYKYTSRYVLKAGQTVTIWAANAGVTASPPTDLIWKNQNSWGTGEDVKVILKNSQGEEVAQRSTVFKTTIPEEEEEEEEAAGVVVEEELFHQQGTPRASNRSCAIM [S395A;S396A] was tested, and the “effect of a mutation on the interaction” value was “decreasing interaction strength”.
